Laboratory results: patent US20240391977A1

Target: human TPOR (thrombopoietin receptor, c-Mpl) expressed on BaF3/c-Mpl cells (human) (UniProt P40238)
Test: cell-based or functional assay

EC50 (ng/ml), growth of BaF3/c-Mpl cells by CCK-8 assay; Nplate®: 8.78 ng/mL
Substance: Romiplostim (Nplate®) (Fc fusion)
